Laboratory results: patent CN113150157A

Tests used:
[1] = biological target: 人成纤维细胞生长因子2(FGF2) (human) (UniProt P09038); assay: sandwich chemiluminescence immunoassay, AntiVEGF_C capture and AntiVEGF_N-HRP detection, FGF2 at 20μg/ml; apparent VEGF concentration
[2] = biological target: 人成纤维细胞生长因子2(FGF2) (human) (UniProt P09038); assay: sandwich chemiluminescence immunoassay, AntiVEGF_C capture and AntiVEGF_N-HRP detection, FGF2 at 20μg/ml (specificity test)
[3] = biological target: 表皮生长因子(EGF) (UniProt P01133); assay: sandwich chemiluminescence immunoassay, AntiVEGF_C capture and AntiVEGF_N-HRP detection, EGF at 30ng/ml; apparent VEGF concentration
UniProt P01133, sequence (P01133 971-1023 limits assumed): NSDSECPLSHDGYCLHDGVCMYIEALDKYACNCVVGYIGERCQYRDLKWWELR

[4] = biological target: 表皮生长因子(EGF) (UniProt P01133); assay: sandwich chemiluminescence immunoassay, AntiVEGF_C capture and AntiVEGF_N-HRP detection, EGF at 30ng/ml (specificity test)

UniProt P09038, sequence (P09038 143-288 limits assumed): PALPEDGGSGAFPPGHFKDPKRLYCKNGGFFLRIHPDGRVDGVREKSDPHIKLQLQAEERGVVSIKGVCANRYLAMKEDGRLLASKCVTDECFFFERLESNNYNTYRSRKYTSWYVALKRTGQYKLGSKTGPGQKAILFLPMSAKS

B1: 单克隆抗体AntiVEGF_C (antibody, V domains shown)
VH: EVQLVESGGGLVQPGGSRKLSCAASGFTFSSFGMHWVRQAPEKGLEWVAFINSDSSAFYYADTVQDRFTISRDNPKNTLFLQMTSLRSEDTAMYYCARAGNHYYGGAYWGQGTLVTVSA
VL: QIVLSQSPAILSASPGEKVTMTCRASSSVSYMHWYQQRPGSSPKPWIYDTSNLASGVPVRFSGSGSGTSYSLTISRVEVEDAATYYCQQWSRHPPITFGSGTKLEIK
浓度值 (检测表观值) [1]: 11.3 pg/mL
发光值 [2]: 14900 RLU
浓度值 (检测表观值) [3]: 6.57 pg/mL
发光值 [4]: 8770 RLU
